As a reminder, the Kd is the constant that tells how readily two partners part at equilibrium. Lower therefore signals higher affinity.

The assay deals with actin filaments (UniProt P68133). Put plainly: pelleting assay.

B1: End4p TLD (protein)
chain: LLNAPGENIEELVDNQLAETAQAIQQAILRLQNIAAKPKDDSLSPSELQVHDSLLSASIAITEAIARLIKAATASQAEIVAQGRGSSSRGAFYKKHNRWTEGLISAAKAVARATTTLIETADGVVNGTSSFEHLIVACNGVSAATAQLVAASRVKANFASKVQDHLEDAAKAVTEACKALVRQVESVALKAKEVQHEDFSSLGVHEYRRKEIEQQVQILKLENDLVAARRRLFDMRKTSYHVA
In the case of B1, the dissociation constant Kd was about 3000 nM.

For the origin of these results see paper PMC4131202 (2013).
